Experimental data as given in a protein production outcome set (Wang et al. 2014).
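Further: failed if final PepcDB status was selected cloned or expressed and not failed if soluble or beyond.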

Assay: label from the status in PepcDB records
In the case of “MSTSWRIRIMLTIHAKLVEAMLAQAHKDHPFEICGVIAGPEKSNLPLRLIPMRNAAQSETFFKFDPQEQLQVWREMEARGEEPIVIYHSHTHTPAYPSRTDVQYASQPQSHYVIVPTDPAYGEEIRSFRILDGMVTEERIRMINSYKAEWELSMEAMVALEHHHHHH”, the protein production is reported as “not failed”.
In the case of “MSTTGRIHSFESCGTVDGPGIRFIVFLQGCLMRCKYCHNRDTWDTHDGKEVTVEEIIAEAKSYRHFMNASGGGITCSGGEAMLQPEFVRDFFRAAHAEGIHTCLDTNGYIRKHTEVIDEVLDATDLVMLDIKHMKDEIHQDFIGVSNRRTLDFARYLHKIGQKTWIRYVVVPGYTDDPEAAHMLGEFIKDMDNIEKVELLPYHKLGAHKWEALGLEYPLEGVNPPSKETMDEIQSILSQYHSNVKYLEHHHHHH”, the protein production is reported as “failed”.
With “MSTTTRISTAERLGRALGRGWRAYARSERRASNWLVSKGVPLAAAAALLWAGKLAVLGLLLYVAFWLALLLVALVFVARGHDTVEWEPPEPEWRHGHAGFGLYTHDEYRIDSHDPSDET” the protein production was “failed”.
In the case of “MSVADVALSPIHRGSAFAVGGFGQSTTTHYSVKSVLVFLSVSGSTMPMLILESDSIAEVKLRIQTCNGFRVRRQKLVFSGRELARNASRVKDYGVTGGSVLHLVLKLYDPLLVTVITTCGKVFQFHVDRRRNVGYLKKRISKEGKGFPEVDDQEILFKGEKLDDNRIIDGICKDGNSVIHLLVKKSVEDTVKREEDTATGKDSLLEPLFLTPM”, the protein production is reported as “failed”.
For “MSVAETEIPIPAATPSLTDACVHCGFCLSDCPSYRVLGRETDSPRGRVYLMDSLQQGRIELSDTVVEHFDTCLGCLACTSACPSGVQYDQLIEEMRQRIAQEHRRPWPEAIWRKLLFAFLPYPERLRPILRLGQLYQSSGLQNWLNRQPLLQKFPQLAAASALLPPLSPASFQDNWPTLLPALGDRRYRVGLLLGCVQRLFNPEVNAAAIRVLRANGCDVVIPPQQGCCGAVAHHQGEMQQAQDLARAVIRSFEAENLDAILVTASGCGHTLKHYGAILADDPEWCDRAQQLADRVQDVQEFLATVGLTTPLHPLQEQPLVVVYQDACHMLHGQKIRNQPRQLLQQIPGIELREPVDAQLCCGSAGIYNLLQPAIAAELGQQKARSLAETGAQMIASANIGCYVQIRHHLQAQSKDLPVLHPLQIIDRAMNFQNH”, the protein production was “failed”.
In the case of “MSVDPMTYEAQFFGFTPQTCMLRIYIAFQDYLFEVMQAVEQVILKKLDGIPDCDISPVQIRKCTEKFLCFMKGHFDNLFSKMEQLFLQLILRIPSNILLPEDKCKETPYSEEDFQHLQKEIEQLQEKYKTELCTKQALLAELEEQKIVQAKLKQTLTFFDELHNVGRDHGTSDFRESLVSLVQNSRKLQNIRDNVEKESKRLKIS”, the protein production is reported as “failed”.
In the case of “MSVETAQRSEVGVAMARSWLLVPAVGSEVLAAAAASGADSLVIDLEDGLPFAAKDEGRARTAEWLARNAGWVRINDATTPHWQRDLDAIRGLPGVRGLMLSKTESPEQVRDTAEGIPGIPVVALVESAAAIVAADDIARTAPVSRLAFGIGDYCRDTGAGRTPMALAYARSRLVNASRAARIGAPIDGPTLSLDAEAVRDDTRLAREMGMTGKLTLATEQVPVINTALAPDSNDISWAETTIARLGADGSRVTHGGHPPQLARAHDILRRAAHFASRT”, the protein production is reported as “failed”.
For “MSVFAKVVELGSFTAAARQLQMSVSSISQTVAKLEDELQVKLLNRSTRSLGLTEAGKIYYQGCRRMLFEAQDVHEQLYAFNNTPIGTLRIGCSSTMAQNVLARITAKMLKEYPGLSVNLVTGIPAPDLIADGLDVVIRVGALQDSSLFSRRLGSMPMVLCAAKSYLAQAGNPEKPADLAGHAWLEYSVRPDNEFVIIAPEGISTRLTPQGRFVTNDPMTLVRWLTAGVGIAYVPLMWAIEEINRGELEILLPSYQSDPRPVYALYTEKDKLPLKVQVCINYLTEYFVDVAKIYQGMHGRGIAR”, the protein production was “failed”.
For “MSVFTTKVQSIGPEAELFKEEKMVILFGKDAPDALADYCYNIEVQPVTEAITDKQTLVIDEQTYQITAVGEVVLTNLDTLGHITIKFDGATTPELPGTLYVEEKAIPEITVGTTIT”, the protein production was “failed”.
For “MSVGRIHSFETCGTVDGPGIRFIVFLQGCLMRCMYCHNRDTWDTHDGKEVTVAELIEEAKSYRHFMKASGGGITCSGGEAMLQPEFVRDFFRAAQAEGIHTCLDTNGYIRKHTDVIDEVLEASDLVMLDLKQMKDDVHKEFIGVSNTRVLDFARYLHKIGQKTWIRYVIVPGYTDDEESAHLLGNFIKDMDNIEKIELLPYHKLGAHKWEALGHDYPLEGVNPPSKETMEKMVEILSQYHNNVKY”, the protein production was “failed”.
In the case of “MSVKAGDVFKYERRFTEEEVFEFANITGDKGRHHVEYDENGRLMVHGLLTASIGTKVGEELHYIARELVSEFIRPVFTGDTITCELTLTNVEQMEGYKKVSIESVYRNQHEKTVLVGTSYGIIRGLEHHHHHH”, the protein production is reported as “not failed”.
With “MSVKIVHHKNFLGMIKELMKDAQSVLDIGCGVGATLKDFPCPIKIGVDAHGPYLEKARLATSFLPIKYEAQRIGEIFLAKSVDCVSMIDVIEHMEKGVGYEVLAQAERIAVKRVIVFTPRGFFKQKAEDHYGLGGESFQEHRSGWEIEDFTQRGYQVIVFNQFHDQSNLAFVESYGKDAKPMDALLAWKELR” the protein production was “not failed”.
In the case of “MSVKKDWIAPLALLFVSFIWGATFVVVQNAMSFVGPFTFNGIRFLFAGIILLFVQMIFSKKTSKQDIKQSSLAGLTVGFFLCVGYVLQTFGLLYTTSSKAGFLTGLSIVMVPILSFIFLKQKATIFIVIGIAVATAGLYLLTAGDSFQLNIGDILVLGCAVAFAAHILVNGFFSKKISPLLLSTSQVLAVGMFSSICAFLFEDWEKLFSVALWTNASFLFALFLTSLFATSIAFFIQTSAQKHTSPTRVAIIFAMEPVFAALTGVLVANEQLSISAIIGCLCIFLGMVFVELPSKTKKEAQAA”, the protein production is reported as “failed”.
For “MSVKLRLPQSAYPIFDRIEEMAWARHYQQIVREEKETELADDLEKGLPQHLFESLCIDHLQRHGANKQAISHAFDDDVEFQERMAEHIRYMAETIAHHQVDIDLEDLEHHHHHH”, the protein production was “not failed”.
With “MSVPLILTLLAGAATFIGAFLGVLGQKPSNRMLAFSLGFAAGIMLLISLMEMLPAALDTEGMSPVLGYGMFIIGLLGYFGLDRLLPHAHPQDLVQKRQQPLPGSIKRTAILLTLGISLHNFPEGIATFVTASSNLELGFGIALAVALHNIPEGLAVAGPVYAATGSKRTAIFWAGISGMAEILGGVLAWLILGSLVSPIVMAAIMAAVAGIMVALSVDELMPLAKEIDPNNNPSYGVLCGMSIMGLSLVILQTIGIG” the protein production was “failed”.
For “MSVPRPMEGRASGSARIYQAGGDQYIEEHVHHHAPGSAPLFGHPWTGPAEPREAAPDSVRMPLVGRAPRVLRDRTDLMERLRAAVAGPGSDIQVLHGMGGCGKTAVAQALFTEAVRDHGRVGLWVNASERVSLRAGMLAVAGDRGATAGELAAAAGGRRAAADLVWHYLDQSAQPWLLVLDNADDPAVLEEGSWLRPSPSGTVLVTTRHATSSLWRAPATSSHRLGVLPLEDATLVLRDLAPDAGTRESARKVARRLGCLPLALTLAGAHLAHQLLESWSMDEYDRKLTEESTALVDRGASATGGGQSRHLVGRTWQLSLDGLAERGLPEATALLRLLSCWAADPVPLSLLMPAAQGGVGLEHLDPPLAAPRVEPALRALLDHSLIEMVETDGHRCVKAHGVLLDSVAGSVPDAERALLAAAAGGLLRAALPPEGAASPRARSQVRLLAPHATGLLHRSHRHDLVTAESVRLAVRLARLVYEAGDWTAALALASTAAKTAAEHLGAEHPVTIEARSGQGTVLFRLGRYAEAADLLRPVQQEALRTLGPHDERTLDAAYELQRVLHRLGDLAHARTLLDTVLDGRRQALGEDHVATLKTRCELLELRLAQDEFDGYTAAAGELAGECERRLGPEHLVTVWARDALARGLLRSGRGAEAEELFRRVLAGQRAGYGDDHPLVYGVLIQLSRAQYAQGKRERAAESAREVAEGRAVILGEDHPETVAARAWYTEVLATPPAPDDLVG”, the protein production was “failed”.
For “MSVPSPVNESLLSQRLAALGAARSWAPNVLPELEHFIRTADDYDLLRVNPIQYGGAVRMSEADAIELFVHAAKVGLFDMDWLLICAYCPQVAGSFRELDQVHPRFQCAFCNAINDVALDDYIQVAFTVSSGVRDIIFRHPERLSVEDFYLRYNFSKGFIAPHGMTHQQLVAALSRGFADIEAHEHRSFDFEVTAGRFEVLDLSHKLLLVFFADGEPAEPQETLVQLESGRFHVPDRPTAPKDMVLGDGQFSFRQTADLSPGKHTIRIENRTDDRGRFWFVQYPPGFAPHLVEYEPFLSGKRLLLTPSFRELYKAQLVDEGESIKVSDMTFLFTDLKKSTPLYESVGDVNAYFLVRQHFEILNRIIRERSGTIIKTIGDAVMAGFERPQDAVCAAIEMIEELSRFNQTASRPLGLKVGVHRGRAIAVNLNDRIDYFGQDVNIAARVQGLADVDEVCISATAMEAPGVGDIVNSRSVSRNYENLKGIGQKMEVHRMTIPPTQT”, the protein production was “failed”.
In the case of “MSVRPVDAALEGLQTMRRRPLTALAWATFSLVMLPILGLLVKIGLGDEGRQVLAGRGSSADPRELLDLVMNLGGAMVLLVALALLLGAVLQAAIIRSVLEPTNDRFAYLRLGKEEIQLLIVSLITWATALLCTIIPSGVVVLGSSLLSGAAAAWFAFLGALSVIGFSLWVAVRLSLLGPHAFSHHHIDIRAAWIQTHGQFWRLLGMFVLTIAIWILVSLLGAAVAGVIGKWLTAAVNLGASGLAASNSWLILSLLANMLLAPVFLTLQTVILVAAPARAFAQLNQDEIDAGLHA”, the protein production is reported as “failed”.
With “MSVSPVQPDPSVIGGVPKAPFVLKPNLARLFNDRASRFEALAQGSHLAPYLNFLAGITRIQSELVSALPPPEPVPADRVERARANAMPPIDRAAMGGSPDCREVLQQFFEKAEALEKPAAAAEALAQVRTADEEMLTWMIGNVMADDLPVESLAHHLYVAAAMQIQAARLAAGLDGSRLVPIRVGVCPACGGRPVASMVIGFHGAEGARYASCSCCATMWNEVRVKCLACGSTKGIGYQAVETGDEEATVKAEVCDTCNSWMKILYQNKNPSLDVVADDVASLGLDLLMKDTEYKRAGFDPFLMGY” the protein production was “not failed”.
In the case of “MSVTRRELLKLAGAAGAMSLAPAIVRAQKLEKAKVQIAVGGKPLIYYLPLTIAEVKGFFKDEGLDVSIADFAGGSKALQAVVGGSADVVSGAFEHTLSLQAKGQFYRAFALQGRAPMIGVGVSKKNLPGYKGPADLKGRKIGVTAPGSSTNMVVNFFLAKHGLKASDVSFIGVGAGAGAVTALRSGQIDAISNTDPVVSMLETSGDIQIIVDTRTLKDTKEIFGGNMPAGCLYAPQAFVDANPNTAQALTNAIVRADKWIQKAGADEIAKAVPEGYLLGDPAVYKAAIGKSMEGLSPDGVIPEDGAATALKALAAFVPDFDAAKVDPAKAWTNEYTRRANEKYPNG”, the protein production is reported as “not failed”.
In the case of “MSVVTESKTARKWAMPDTLVIIFFVAILTSIATWVVPVGMFDSQEVQYQVDGQTKTRKVVDPHSFRIVTNEAGEAQYHRVQFFTTGDERPGLMNFPFEGLTSGSKFGTAVGIIMFMLVIGGAFGIVMRTGTVDNGILALIRHTRGNEVLFIPVLFVLFSLGGAVFGMGKEAVAFAIIIAPLMVRLSYDSITTVLVTYIATQIGFASSWMNPFCVVVAQGIAGVPVLSGSGLRIVVWIVATLIGLVFTLVYASRVKKNPLLSRVHESDRYFREQQDEVVQRPFTFGDWLVLLVLTGVMIWVVWGVIVHAWFIPEIASQFFTMGVVIGLIGVIFRLNGMTVNVMASSFTEGARMMIAPALLVGFAKGILLLVGNGEAGEPSVLNTLLNSIAHGISGLNNAIAAWFMLLFQAVFNFFVTSGSGQAALTMPLLAPLGDLVGVNRQVTVLAFQFGDGFSHIIYPTSASLMATLGVCRVDFRNWLKVGASLLGLLFIMSSVVVIGAQMMGYH”, the protein production is reported as “failed”.
